Measured values published in the supplement of paper PMC5998384.

How the values were obtained:
HeLa Kyoto [1] = assay: solubility in G1/S (NP-40 vs SDS abundance) (log2 ratio); higher = more soluble; conditions: cell cycle stage: G1/S
HeLa Kyoto [2] = assay: solubility change mitosis vs G1/S (difference of NP-40 vs SDS log2 ratios) (log2 ratio difference); higher = more soluble in mitosis
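Throughout, for solubility change mitosis vs G1/S (difference of NP-40 vs SDS log2 ratios): synchronized HeLa Kyoto cells (double thymidine block for G1/S, nocodazole release for mitosis), protein amounts in NP-40 versus SDS lysates quantified by mass spectrometry, three biological replicates.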
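Throughout, for solubility in G1/S (NP-40 vs SDS abundance): HeLa Kyoto cells arrested at G1/S by double thymidine block, proteins quantified by TMT10plex mass spectrometry in mild NP-40 versus SDS extracts, three biological replicates.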

Question: How did the “solubility in G1/S (log2)” value (HeLa Kyoto [1]) turn out when “MENCSAASTFLTDSLELELGTEWCKPPYFSCAVDNRGGGKHFSGESYLCSGALKRLILNLDPLPTNFEEDTLEIFGIQWVTETALVNSSRELFHLFRQQLYNLETLLQSSCDFGKVSTLHCKADNIRQQCVLFLHYVKVFIFRYLKVQNAESHVPVHPYEALEAQLPSVLIDELHGLLLYIGHLSELPSVNIGAFVNQNQIKLFPPSWHLLHLHLDIHWLVLEILYMLGEKLKQVVYGHQFMNLASDNLTNISLFEEHCETLLCDLISLSLNRYDKVRSSESLMSDQCPCLCIKELWVLLIHLLDHRSKWFVSESFWNWLNKLLKTLLEKSSDRRRSSMPVIQSRDPLGFSWWIITHVASFYKFDRHGVPDEMRKVESNWNFVEELLKKSISVQGVILEEQLRMYLHCCLTLCDFWEPNIAIVTILWEYYSKNLNSSFSISWLPFKGLANTMKSPLSMLEMVKTCCCDKQDQELYKSSSSYTIFLCILAKVVKKAMKSNGPHPWKQVKGRIYSKFHQKRMEELTEVGLQNFFSLFLLLAAVAEVEDVASHVLDLLNFLKPAFVTSQRALIWKGHMAFLLMYAQKNLDIGVLAEKFSCAFREKAKEFLVSKNEEMVQRQTIWTLLSIYIDGVQEVFETSYCLYPSHEKLLNDGFSMLLRACRESELRTVLSFLQAVLARIRSMHQQLCQELQRDNVDLFVQSSLSAKERHLAAVASALWRHFFSFLKSQRMSQVVPFSQLADAAADFTLLAMDMPSTAPSDFQPQPVISIIQLFGWDDIICPQVVARYLSHVLQNSTLCEALSHSGYVSFQALTVRSWIRCVLQMYIKNLSGPDDLLIDKNLEEAVEKEYMKQLVKLTRLLFNLSEVKSIFSKAQVEYLSISEDPKKALVRFFEAVGVTYGNVQTLSDKSAMVTKSLEYLGEVLKYIKPYLGKKVFSAGLQLTYGMMGILVKSWAQIFATSKAQKLLFRIIDCLLLPHAVLQQEKELPAPMLSAIQKSLPLYLQGMCIVCCQSQNPNAYLNQLLGNVIEQYIGRFLPASPYVSDLGQHPVLLALRNTATIPPISSLKKCIVQVIRKSYLEYKGSSPPPRLASILAFILQLFKETNTDIYEVELLLPGILKCLVLVSEPQVKRLATENLQYMVKACQVGSEEEPSSQLTSVFRQFIQDYGMRYYYQVYSILETVATLDQQVVIHLISTLTQSLKDSEQKWGLGRNIAQREAYSKLLSHLGQMGQDEMQRLENDNT [MMS22L]” was run?
Answer: Its value is -0.523.

Question: What about the “solubility change mitosis (log2)” value (HeLa Kyoto [2]) of the same sequence?
Answer: Its value is -0.109.

Question: Which “solubility in G1/S (log2)” value (HeLa Kyoto [1]) does the source give for “MEPKVAELKQKIEDTLCPFGFEVYPFQVAWYNELLPPAFHLPLPGPTLAFLVLSTPAMFDRALKPFLQSCHLRMLTDPVDQCVAYHLGRVRESLPELQIEIIADYEVHPNRRPKILAQTAAHVAGAAYYYQRQDVEADPWGNQRISGVCIHPRFGGWFAIRGVVLLPGIEVPDLPPRKPHDCVPTRADRIALLEGFNFHWRDWTYRDAVTPQERYSEEQKAYFSTPPAQRLALLGLAQPSEKPSSPSPDLPFTTPAPKKPGNPSRARSWLSPRVSPPASPGP [MMACHC]” here?
Answer: Its value is 0.0435.

Question: And the “solubility change mitosis (log2)” value (HeLa Kyoto [2])?
Answer: The value was 0.0886.

Question: How did the “solubility in G1/S (log2)” value (HeLa Kyoto [1]) turn out when “METAPKPGKDVPPKKDKLQTKRKKPRRYWEEETVPTTAGASPGPPRNKKNRELRPQRPKNAYILKKSRISKKPQVPKKPREWKNPESQRGLSGTQDPFPGPAPVPVEVVQKFCRIDKSRKLPHSKAKTRSRLEVAEAEEEETSIKAARSELLLAEEPGFLEGEDGEDTAKICQADIVEAVDIASAAKHFDLNLRQFGPYRLNYSRTGRHLAFGGRRGHVAALDWVTKKLMCEINVMEAVRDIRFLHSEALLAVAQNRWLHIYDNQGIELHCIRRCDRVTRLEFLPFHFLLATASETGFLTYLDVSVGKIVAALNARAGRLDVMSQNPYNAVIHLGHSNGTVSLWSPAMKEPLAKILCHRGGVRAVAVDSTGTYMATSGLDHQLKIFDLRGTYQPLSTRTLPHGAGHLAFSQRGLLVAGMGDVVNIWAGQGKASPPSLEQPYLTHRLSGPVHGLQFCPFEDVLGVGHTGGITSMLVPGAGEPNFDGLESNPYRSRKQRQEWEVKALLEKVPAELICLDPRALAEVDVISLEQGKKEQIERLGYDPQAKAPFQPKPKQKGRSSTASLVKRKRKVMDEEHRDKVRQSLQQQHHKEAKAKPTGARPSALDRFVR [WDR46]” was run?
Answer: The value was -1.25.

Question: And the “solubility change mitosis (log2)” value (HeLa Kyoto [2])?
Answer: The value was 0.592.

Question: Which results are given for “MFHSPRRLCSALLQRDAPGLRRLPAPGLRRPLSPPAAVPRPASPRLLAAASAASGAARSCSRTVCSMGTGTSRLYSALAKTLNSSAASQHPEYLVSPDPEHLEPIDPKELLEECRAVLHTRPPRFQRDFVDLRTDCPSTHPPIRVMQWNILAQALGEGKDNFVQCPVEALKWEERKCLILEEILAYQPDILCLQEVDHYFDTFQPLLSRLGYQGTFFPKPWSPCLDVEHNNGPDGCALFFLQNRFKLVNSANIRLTAMTLKTNQVAIAQTLECKESGRQFCIAVTHLKARTGWERFRSAQGCDLLQNLQNITQGAKIPLIVCGDFNAEPTEEVYKHFASSSLNLNSAYKLLSADGQSEPPYTTWKIRTSGECRHTLDYIWYSKHALNVRSALDLLTEEQIGPNRLPSFNYPSDHLSLVCDFSFTEESDGLS [NOCT]”?
Answer: solubility in G1/S (log2) (HeLa Kyoto [1]): 0.0632; solubility change mitosis (log2) (HeLa Kyoto [2]): -0.0975

Question: Which results are given for “MFLQYYLNEQGDRVYTLKKFDPMGQQTCSAHPARFSPDDKYSRHRITIKKRFKVLMTQQPRPVL [NOP10]”?
Answer: solubility in G1/S (log2) (HeLa Kyoto [1]): -1.06; solubility change mitosis (log2) (HeLa Kyoto [2]): 0.778

Question: How did the “solubility in G1/S (log2)” value (HeLa Kyoto [1]) turn out when “MFPVFPCTLLAPPFPVLGLDSRGVGGLMNSFPPPQGHAQNPLQVGAELQSRFFASQGCAQSPFQAAPAPPPTPQAPAAEPLQVDLLPVLAAAQESAAAAAAAAAAAAAVAAAPPAPAAASTVDTAALKQPPAPPPPPPPVSAPAAEAAPPASAATIAAAAATAVVAPTSTVAVAPVASALEKKTKSKGPYICALCAKEFKNGYNLRRHEAIHTGAKAGRVPSGAMKMPTMVPLSLLSVPQLSGAGGGGGEAGAGGGAAAVAAGGVVTTTASGKRIRKNHACEMCGKAFRDVYHLNRHKLSHSDEKPYQCPVCQQRFKRKDRMSYHVRSHDGAVHKPYNCSHCGKSFSRPDHLNSHVRQVHSTERPFKCEKCEAAFATKDRLRAHTVRHEEKVPCHVCGKMLSSAYISDHMKVHSQGPHHVCELCNKGTGEVCPMAAAAAAAAAAAAAAVAAPPTAVGSLSGAEGVPVSSQPLPSQPW [MAZ]” was run?
Answer: Its value is 0.0657.

Question: And the “solubility change mitosis (log2)” value (HeLa Kyoto [2])?
Answer: The value was 0.19.

Question: Which “solubility in G1/S (log2)” value (HeLa Kyoto [1]) does the source give for “MFQASMRSPNMEPFKQQKVEDFYDIGEELGSGQFAIVKKCREKSTGLEYAAKFIKKRQSRASRRGVSREEIEREVSILRQVLHHNVITLHDVYENRTDVVLILELVSGGELFDFLAQKESLSEEEATSFIKQILDGVNYLHTKKIAHFDLKPENIMLLDKNIPIPHIKLIDFGLAHEIEDGVEFKNIFGTPEFVAPEIVNYEPLGLEADMWSIGVITYILLSGASPFLGDTKQETLANITAVSYDFDEEFFSQTSELAKDFIRKLLVKETRKRLTIQEALRHPWITPVDNQQAMVRRESVVNLENFRKQYVRRRWKLSFSIVSLCNHLTRSLMKKVHLRPDEDLRNCESDTEEDIARRKALHPRRRSSTS [DAPK2]” here?
Answer: Its value is 0.203.

Question: And the “solubility change mitosis (log2)” value (HeLa Kyoto [2])?
Answer: The value was -0.115.

Question: With “MGAAAAEADRTLFVGNLETKVTEELLFELFHQAGPVIKVKIPKDKDGKPKQFAFVNFKHEVSVPYAMNLLNGIKLYGRPIKIQFRSGSSHAPQDVSLSYPQHHVGNSSPTSTSPSRYERTMDNMTSSAQIIQRSFSSPENFQRQAVMNSALRQMSYGGKFGSSPLDQSGFSPSVQSHSHSFNQSSSSQWRQGTPSSQRKVRMNSYPYLADRHYSREQRYTDHGSDHHYRGKRDDFFYEDRNHDDWSHDYDNRRDSSRDGKWRSSRH [RBM7]” as the sequence, how does the “solubility in G1/S (log2)” value (HeLa Kyoto [1]) read?
Answer: The value was 0.568.

Question: What about the “solubility change mitosis (log2)” value (HeLa Kyoto [2]) of the same sequence?
Answer: The value was 0.189.

Question: For “MGLEDEQKMLTESGDPEEEEEEEEELVDPLTTVREQCEQLEKCVKARERLELCDERVSSRSHTEEDCTEELFDFLHARDHCVAHKLFNNLK [UQCRH]”, which “solubility in G1/S (log2)” value (HeLa Kyoto [1]) is on record?
Answer: The value was -0.528.

Question: And the “solubility change mitosis (log2)” value (HeLa Kyoto [2])?
Answer: The value was 0.641.

Question: With “MGLYGQACPSVTSLRMTSELESSLTSMDWLPQLTMRAAIQKSDATQNAHGTGISKKNALLDPNTTLDQEEVQQHKDGKPPYSYASLITFAINSSPKKKMTLSEIYQWICDNFPYYREAGSGWKNSIRHNLSLNKCFLKVPRSKDDPGKGSYWAIDTNPKEDVLPTRPKKRARSVERASTPYSIDSDSLGMECIISGSASPTLAINTVTNKVTLYNTDQDGSDSPRSSLNNSLSDQSLASVNLNSVGSVHSYTPVTSHPESVSQSLTPQQQPQYNLPERDKQLLFSEYNFEDLSASFRSLYKSVFEQSLSQQGLMNIPSESSQQSHTSCTYQHSPSSTVSTHPHSNQSSLSNSHGSGLNTTGSNSVAQVSLSHPQMHTQPSPHPPHRPHGLPQHPQRSPHPAPHPQQHSQLQSPHPQHPSPHQHIQHHPNHQHQTLTHQAPPPPQQVSCNSGVSNDWYATLDMLKESCRIASSVNWSDVDLSQFQGLMESMRQADLKNWSLDQVQFADLCSSLNQFFTQTGLIHSQSNVQQNVCHGAMHPTKPSQHIGTGNLYIDSRQNLPPSVMPPPGYPHIPQALSTPGTTMAGHHRAMNQQHMMPSQAFQMRRSLPPDDIQDDFDWDSIV [FOXJ3]” as the sequence, how does the “solubility in G1/S (log2)” value (HeLa Kyoto [1]) read?
Answer: Its value is 0.664.

Question: And the “solubility change mitosis (log2)” value (HeLa Kyoto [2])?
Answer: Its value is 0.0825.

Question: For “MGMACLTMTEMEGTSTSSIYQNGDISGNANSMKQIDPVLQVYLYHSLGKSEADYLTFPSGEYVAEEICIAASKACGITPVYHNMFALMSETERIWYPPNHVFHIDESTRHNVLYRIRFYFPRWYCSGSNRAYRHGISRGAEAPLLDDFVMSYLFAQWRHDFVHGWIKVPVTHETQEECLGMAVLDMMRIAKENDQTPLAIYNSISYKTFLPKCIRAKIQDYHILTRKRIRYRFRRFIQQFSQCKATARNLKLKYLINLETLQSAFYTEKFEVKEPGSGPSGEEIFATIIITGNGGIQWSRGKHKESETLTEQDLQLYCDFPNIIDVSIKQANQEGSNESRVVTIHKQDGKNLEIELSSLREALSFVSLIDGYYRLTADAHHYLCKEVAPPAVLENIQSNCHGPISMDFAISKLKKAGNQTGLYVLRCSPKDFNKYFLTFAVERENVIEYKHCLITKNENEEYNLSGTKKNFSSLKDLLNCYQMETVRSDNIIFQFTKCCPPKPKDKSNLLVFRTNGVSDVPTSPTLQRPTHMNQMVFHKIRNEDLIFNESLGQGTFTKIFKGVRREVGDYGQLHETEVLLKVLDKAHRNYSESFFEAASMMSKLSHKHLVLNYGVCVCGDENILVQEFVKFGSLDTYLKKNKNCINILWKLEVAKQLAWAMHFLEENTLIHGNVCAKNILLIREEDRKTGNPPFIKLSDPGISITVLPKDILQERIPWVPPECIENPKNLNLATDKWSFGTTLWEICSGGDKPLSALDSQRKLQFYEDRHQLPAPKWAELANLINNCMDYEPDFRPSFRAIIRDLNSLFTPDYELLTENDMLPNMRIGALGFSGAFEDRDPTQFEERHLKFLQQLGKGNFGSVEMCRYDPLQDNTGEVVAVKKLQHSTEEHLRDFEREIEILKSLQHDNIVKYKGVCYSAGRRNLKLIMEYLPYGSLRDYLQKHKERIDHIKLLQYTSQICKGMEYLGTKRYIHRDLATRNILVENENRVKIGDFGLTKVLPQDKEYYKVKEPGESPIFWYAPESLTESKFSVASDVWSFGVVLYELFTYIEKSKSPPAEFMRMIGNDKQGQMIVFHLIELLKNNGRLPRPDGCPDEIYMIMTECWNNNVNQRPSFRDLALRVDQIRDNMAG [JAK2]”, which “solubility in G1/S (log2)” value (HeLa Kyoto [1]) is on record?
Answer: The value was -0.224.

Question: And the “solubility change mitosis (log2)” value (HeLa Kyoto [2])?
Answer: The value was 0.0233.
